Measurements: publication PMC12549896, “Structural basis for antibiotic resistance by chloramphenicol acetyltransferase type A in Staphylococcus aureus” (Scientific Reports, 2025)

Key:
[1] = target: T1, saCAT1 (chloramphenicol acetyltransferase type A, S. aureus) (Staphylococcus aureus, UniProt P00485); experiment: DTNB colorimetric acetyltransferase assay at […] nm, FA […], at […] chloramphenicol; assay type: biochemical
T1 construct: gene cat; residues 1-216; four amino acids (GSLE) remain at the N-terminus after thrombin cleavage; homotrimer

[2] = test system: O=C(N[C@H](CO)[C@H](O)c1ccc([N+](=O)[O-])cc1)C(Cl)Cl; experiment: purified protein; assay type: biochemical, Staphylococcus aureus; details: acetyl-CoA ([…] in assay) docked only: inter-protomer pocket; Ser140, Ser142, Tyr20, Thr25, catalytic His189
[3] = target: the molecule itself; experiment: crystal structure; X-ray, space group P321, 1.8 Å; hanging drop at 16 °C, 0.01 M cobalt (II) chloride, 0.1 M sodium acetate pH 4.6, 1 M 1,6-hexanediol; trimer on the crystallographic 3-fold axis, interfaces analysed with PISA

With `CC(=O)O[C@H]1C[C@@]2(C)[C@@H](C[C@@H](O)[C@H]3[C@@]4(C)CC[C@@H](O)[C@@H](C)[C@@H]4CC[C@@]32C)/C1=C(\CCC=C(C)C)C(=O)O` [FA, fusidic acid] the Ki [1] was 83.7 µM.

“saCAT1 (chloramphenicol acetyltransferase type A, S. aureus) (Staphylococcus aureus)” was tested, and the Km [2] was 16.9 ± 3.0 µM.

B1: Staphylococcus aureus chloramphenicol acetyltransferase 1 (saCAT1) (enzyme)
chain: GSLEMNFNKIDLDNWKRKEIFNHYLNQQTTFSITTEIDISVLYRNIKQEGYKFYPAFIFLVTRVINSNTAFRTGYNSDGELGYWDKLEPLYTIFDGVSKTFSGIWTPVKNDFKEFYDLYLSDVEKYNGSGKLFPKTPIPENAFSLSIIPWTSFTGFNLNINNNSNYLLPIITAGKFINKGNSIYLPLSLQVHHSVCDGYHAGLFMNSIQELSDRPNDWLL
notes: four amino acids that remain at the N-terminus after thrombin cleavage of the His tag; chloramphenicol acetyltransferase encoded by the cat1 gene of Staphylococcus aureus plasmid pC194; all residues (1-216) modelled in the crystal structure; Cloned into the vector pFs91G (N-terminal 6xHis tag and thrombin site); Homotrimer in solution and in the crystal; one protomer in the asymmetric unit, the …
For B1, the “stoichiometry N” value [3] was 3.
